# Measured values published in patent US20220119490A1 (Genentech, published 2022).
# T1: PTPRT expressed on cells (human, UniProt O14522 26-1441)
# T1 construct: whole, on cells
# T1 sequence (looked up): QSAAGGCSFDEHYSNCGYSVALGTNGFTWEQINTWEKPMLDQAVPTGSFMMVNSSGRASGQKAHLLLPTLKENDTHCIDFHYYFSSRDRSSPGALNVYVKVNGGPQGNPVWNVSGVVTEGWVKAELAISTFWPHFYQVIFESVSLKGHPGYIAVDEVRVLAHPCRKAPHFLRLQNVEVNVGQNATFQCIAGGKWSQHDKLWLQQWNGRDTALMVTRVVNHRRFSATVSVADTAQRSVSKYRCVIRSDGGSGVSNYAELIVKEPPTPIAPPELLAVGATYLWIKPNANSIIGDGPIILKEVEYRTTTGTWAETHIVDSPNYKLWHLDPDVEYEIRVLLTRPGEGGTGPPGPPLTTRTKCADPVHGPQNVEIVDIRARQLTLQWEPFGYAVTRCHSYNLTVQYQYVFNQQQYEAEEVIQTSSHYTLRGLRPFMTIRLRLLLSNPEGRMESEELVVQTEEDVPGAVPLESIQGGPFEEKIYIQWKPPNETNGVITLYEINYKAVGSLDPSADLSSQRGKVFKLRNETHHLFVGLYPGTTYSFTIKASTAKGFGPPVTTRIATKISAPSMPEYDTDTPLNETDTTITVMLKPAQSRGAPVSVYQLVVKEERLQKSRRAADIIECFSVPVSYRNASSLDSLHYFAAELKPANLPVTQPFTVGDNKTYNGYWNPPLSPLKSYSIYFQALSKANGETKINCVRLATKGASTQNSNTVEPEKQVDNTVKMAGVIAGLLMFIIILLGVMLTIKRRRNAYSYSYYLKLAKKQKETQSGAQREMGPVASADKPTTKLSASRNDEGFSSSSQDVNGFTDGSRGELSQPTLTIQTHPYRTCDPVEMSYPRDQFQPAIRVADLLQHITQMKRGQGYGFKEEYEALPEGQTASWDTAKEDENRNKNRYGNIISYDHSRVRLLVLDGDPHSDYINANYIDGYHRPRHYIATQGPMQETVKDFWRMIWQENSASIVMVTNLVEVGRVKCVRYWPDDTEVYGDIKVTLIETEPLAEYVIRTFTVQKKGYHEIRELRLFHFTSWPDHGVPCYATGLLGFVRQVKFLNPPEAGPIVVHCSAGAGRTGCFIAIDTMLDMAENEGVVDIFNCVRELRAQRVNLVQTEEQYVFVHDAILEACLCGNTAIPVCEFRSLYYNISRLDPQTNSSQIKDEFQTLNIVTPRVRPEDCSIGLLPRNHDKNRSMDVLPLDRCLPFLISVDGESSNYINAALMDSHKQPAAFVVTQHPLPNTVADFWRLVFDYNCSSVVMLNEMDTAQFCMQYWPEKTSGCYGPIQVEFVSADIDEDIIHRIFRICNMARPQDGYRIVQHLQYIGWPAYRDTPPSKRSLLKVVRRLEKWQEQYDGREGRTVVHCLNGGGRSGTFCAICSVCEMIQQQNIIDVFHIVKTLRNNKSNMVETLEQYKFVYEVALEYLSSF
# T2: CHL1 extracellular domain (human, UniProt O00533 25-1082)
# T2 construct: extracellular domain; Soluble query (streptavidin tetramer) in cell assays; recombinant protein (R&D) in SPR; also called neural cell adhesion molecule L1-like protein; close homolog of L1
# T2 sequence (looked up): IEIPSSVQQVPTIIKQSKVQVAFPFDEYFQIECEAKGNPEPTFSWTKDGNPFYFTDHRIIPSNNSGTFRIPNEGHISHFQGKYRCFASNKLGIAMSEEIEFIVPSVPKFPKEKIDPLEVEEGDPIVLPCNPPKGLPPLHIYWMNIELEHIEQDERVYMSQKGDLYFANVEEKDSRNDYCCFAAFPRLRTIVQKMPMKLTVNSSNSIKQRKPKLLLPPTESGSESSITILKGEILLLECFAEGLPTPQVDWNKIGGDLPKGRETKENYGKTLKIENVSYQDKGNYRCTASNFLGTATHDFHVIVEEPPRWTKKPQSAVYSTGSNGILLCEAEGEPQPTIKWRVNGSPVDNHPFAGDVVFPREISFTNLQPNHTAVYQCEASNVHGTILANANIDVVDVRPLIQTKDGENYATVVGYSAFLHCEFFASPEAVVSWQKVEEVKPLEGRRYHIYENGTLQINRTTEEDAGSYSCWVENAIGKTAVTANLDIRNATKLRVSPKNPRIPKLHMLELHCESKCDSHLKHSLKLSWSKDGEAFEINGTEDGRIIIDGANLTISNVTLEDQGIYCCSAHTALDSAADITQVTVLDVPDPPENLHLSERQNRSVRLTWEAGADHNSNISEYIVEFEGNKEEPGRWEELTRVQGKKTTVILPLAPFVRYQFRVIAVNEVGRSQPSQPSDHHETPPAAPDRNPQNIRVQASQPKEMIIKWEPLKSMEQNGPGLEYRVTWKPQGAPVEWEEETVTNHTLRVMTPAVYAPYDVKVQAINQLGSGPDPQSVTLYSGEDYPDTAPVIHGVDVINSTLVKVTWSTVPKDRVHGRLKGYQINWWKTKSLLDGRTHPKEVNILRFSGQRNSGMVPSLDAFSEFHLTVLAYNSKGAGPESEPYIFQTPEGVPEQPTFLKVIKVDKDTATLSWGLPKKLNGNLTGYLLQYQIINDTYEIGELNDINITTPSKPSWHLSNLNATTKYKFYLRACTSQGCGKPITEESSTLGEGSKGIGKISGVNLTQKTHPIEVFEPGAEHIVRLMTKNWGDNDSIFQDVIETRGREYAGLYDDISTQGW
# How the values were obtained:
# [1] = target: T1, PTPRT expressed on cells; assay: cell surface interaction assay: query ECD tetramerised with fluorescent streptavidin on transfected cells, immunofluorescence
# Source text: (§1) FIG. 3H is a schematic showing the design of the cell surface interaction assay.
# (§2) Experiments shown are representative of two independent assays. […] Scale bar=50 μm.
# [2] = target: T3, PTPRZ1 expressed on cells (human, UniProt P23471 25-2315); assay: as above
# T3 construct: whole, on cells
# T3 sequence (P23471 25-2315): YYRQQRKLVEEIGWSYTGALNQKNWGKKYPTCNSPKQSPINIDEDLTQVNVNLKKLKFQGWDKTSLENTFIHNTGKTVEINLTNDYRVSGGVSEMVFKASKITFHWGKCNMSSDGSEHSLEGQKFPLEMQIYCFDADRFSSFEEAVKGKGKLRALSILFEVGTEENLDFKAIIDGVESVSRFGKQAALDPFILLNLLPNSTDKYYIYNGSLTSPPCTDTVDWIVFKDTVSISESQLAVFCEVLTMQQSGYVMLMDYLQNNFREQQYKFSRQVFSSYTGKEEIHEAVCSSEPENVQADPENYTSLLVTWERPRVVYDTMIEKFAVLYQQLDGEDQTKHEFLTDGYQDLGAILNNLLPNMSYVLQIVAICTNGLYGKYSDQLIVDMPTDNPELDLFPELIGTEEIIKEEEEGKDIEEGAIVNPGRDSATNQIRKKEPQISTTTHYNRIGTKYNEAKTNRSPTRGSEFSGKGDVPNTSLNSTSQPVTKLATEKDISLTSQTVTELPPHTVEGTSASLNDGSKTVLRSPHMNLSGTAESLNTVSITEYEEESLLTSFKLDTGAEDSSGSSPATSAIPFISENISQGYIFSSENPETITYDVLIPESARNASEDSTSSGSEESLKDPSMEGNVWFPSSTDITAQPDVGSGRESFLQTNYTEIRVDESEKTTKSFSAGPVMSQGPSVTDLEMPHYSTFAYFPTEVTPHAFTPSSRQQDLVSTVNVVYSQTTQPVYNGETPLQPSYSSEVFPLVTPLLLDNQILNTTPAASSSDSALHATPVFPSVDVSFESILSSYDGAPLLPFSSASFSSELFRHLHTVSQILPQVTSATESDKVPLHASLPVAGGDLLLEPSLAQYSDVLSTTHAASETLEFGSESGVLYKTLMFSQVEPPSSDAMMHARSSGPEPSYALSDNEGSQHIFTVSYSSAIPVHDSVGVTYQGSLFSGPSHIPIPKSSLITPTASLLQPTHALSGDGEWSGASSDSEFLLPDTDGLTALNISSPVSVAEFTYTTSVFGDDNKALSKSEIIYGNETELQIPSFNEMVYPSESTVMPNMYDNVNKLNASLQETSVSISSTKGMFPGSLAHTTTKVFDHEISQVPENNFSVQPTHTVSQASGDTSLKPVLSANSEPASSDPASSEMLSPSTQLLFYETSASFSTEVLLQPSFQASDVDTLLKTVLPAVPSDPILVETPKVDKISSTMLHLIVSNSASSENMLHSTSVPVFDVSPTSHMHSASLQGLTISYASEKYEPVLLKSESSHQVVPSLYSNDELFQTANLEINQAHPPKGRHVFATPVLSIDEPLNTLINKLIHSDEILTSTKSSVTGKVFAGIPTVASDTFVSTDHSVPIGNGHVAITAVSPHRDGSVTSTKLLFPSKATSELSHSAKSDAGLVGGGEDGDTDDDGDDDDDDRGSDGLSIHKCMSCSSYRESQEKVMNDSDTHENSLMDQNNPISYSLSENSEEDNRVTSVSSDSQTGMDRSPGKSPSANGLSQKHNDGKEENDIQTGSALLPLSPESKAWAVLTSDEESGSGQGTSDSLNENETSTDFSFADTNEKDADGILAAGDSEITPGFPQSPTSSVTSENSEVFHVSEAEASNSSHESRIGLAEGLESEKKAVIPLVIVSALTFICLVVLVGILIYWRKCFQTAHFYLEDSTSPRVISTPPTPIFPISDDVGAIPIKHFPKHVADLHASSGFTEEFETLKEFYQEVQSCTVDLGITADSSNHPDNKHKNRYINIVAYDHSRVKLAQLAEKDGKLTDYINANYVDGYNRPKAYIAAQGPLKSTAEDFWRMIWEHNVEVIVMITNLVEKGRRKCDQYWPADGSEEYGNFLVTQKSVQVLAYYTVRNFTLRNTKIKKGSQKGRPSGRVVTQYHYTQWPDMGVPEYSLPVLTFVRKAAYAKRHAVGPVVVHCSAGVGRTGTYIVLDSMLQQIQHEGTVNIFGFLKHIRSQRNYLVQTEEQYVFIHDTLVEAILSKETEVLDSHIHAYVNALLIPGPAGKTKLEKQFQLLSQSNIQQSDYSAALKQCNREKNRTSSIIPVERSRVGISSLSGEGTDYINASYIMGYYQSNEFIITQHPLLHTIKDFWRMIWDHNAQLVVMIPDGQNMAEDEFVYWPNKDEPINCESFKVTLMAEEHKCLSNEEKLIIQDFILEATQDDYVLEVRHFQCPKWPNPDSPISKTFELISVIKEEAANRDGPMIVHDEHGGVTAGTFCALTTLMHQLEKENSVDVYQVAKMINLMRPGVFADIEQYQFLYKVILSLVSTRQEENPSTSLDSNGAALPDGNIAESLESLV
# Source text: as §1, §2
# [3] = target: T2, CHL1 extracellular domain; assay: SPR, CHL1 immobilized, CNTN1 ECD-Fc injected at 250 nM
binding result [1],binding result [2],binding result [3],Binder
no binding,no binding,–,"LRFN5 extracellular domain (receptor, human, UniProt Q96NI6 18-529, looked up, extracellular domain; Streptavidin tetramer in cell assay; ECD-Fc prey in the variant screen; also called LFRN5) QICPKRCVCQILSPNLATLCAKKGLLFVPPNIDRRTVELRLADNFVTNIKRKDFANMTSLVDLTLSRNTISFITPHAFADLRNLRALHLNSNRLTKITNDMFSGLSNLHHLILNNNQLTLISSTAFDDVFALEELDLSYNNLETIPWDAVEKMVSLHTLSLDHNMIDNIPKGTFSHLHKMTRLDVTSNKLQKLPPDPLFQRAQVLATSGIISPSTFALSFGGNPLHCNCELLWLRRLSREDDLETCASPPLLTGRYFWSIPEEEFLCEPPLITRHTHEMRVLEGQRATLRCKARGDPEPAIHWISPEGKLISNATRSLVYDNGTLDILITTVKDTGAFTCIASNPAGEATQIVDLHIIKLPHLLNSTNHIHEPDPGSSDISTSTKSGSNTSSSNGDTKLSQDKIVVAEATSSTALLKFNFQRNIPGIRMFQIQYNGTYDDTLVYRMIPPTSKTFLVNNLAAGTMYDLCVLAIYDDGITSLTATRVVGCIQFTTEQDYVRCHFMQSQFLGGTM"
–,–,binds,"CNTN1 extracellular domain (receptor, human, UniProt Q12860 21-993, looked up, extracellular domain; Streptavidin tetramer in cell assays; ECD-Fc in SPR; also called contactin 1) EFTWYRRYGHGVSEEDKGFGPIFEEQPINTIYPEESLEGKVSLNCRARASPFPVYKWRMNNGDVDLTSDRYSMVGGNLVINNPDKQKDAGIYYCLASNNYGMVRSTEATLSFGYLDPFPPEERPEVRVKEGKGMVLLCDPPYHFPDDLSYRWLLNEFPVFITMDKRRFVSQTNGNLYIANVEASDKGNYSCFVSSPSITKSVFSKFIPLIPIPERTTKPYPADIVVQFKDVYALMGQNVTLECFALGNPVPDIRWRKVLEPMPSTAEISTSGAVLKIFNIQLEDEGIYECEAENIRGKDKHQARIYVQAFPEWVEHINDTEVDIGSDLYWPCVATGKPIPTIRWLKNGYAYHKGELRLYDVTFENAGMYQCIAENTYGAIYANAELKILALAPTFEMNPMKKKILAAKGGRVIIECKPKAAPKPKFSWSKGTEWLVNSSRILIWEDGSLEINNITRNDGGIYTCFAENNRGKANSTGTLVITDPTRIILAPINADITVGENATMQCAASFDPALDLTFVWSFNGYVIDFNKENIHYQRNFMLDSNGELLIRNAQLKHAGRYTCTAQTIVDNSSASADLVVRGPPGPPGGLRIEDIRATSVALTWSRGSDNHSPISKYTIQTKTILSDDWKDAKTDPPIIEGNMEAARAVDLIPWMEYEFRVVATNTLGRGEPSIPSNRIKTDGAAPNVAPSDVGGGGGRNRELTITWAPLSREYHYGNNFGYIVAFKPFDGEEWKKVTVTNPDTGRYVHKDETMSPSTAFQVKVKAFNNKGDGPYSLVAVINSAQDAPSEAPTEVGVKVLSSSEISVHWEHVLEKIVESYQIRYWAAHDKEEAANRVQVTSQEYSARLENLLPDTQYFIEVGACNSAGCGPPSDMIEAFTKKAPPSQPPRIISSVRSGSRYIITWDHVVALSNESTVTGYKVLYRPDGQHDGKLYSTHKHSIEVPIPRDGEYVVEVRAHSDGGDGVVSQVKIS"
